The target of data set [1] is Trichomonas vaginalis riboside hydrolase (TvRH), His6 tag removed (Trichomonas vaginalis) (UniProt A2FTT0). The data set is described as follows: SEC. On the technique in general: Size exclusion chromatography separates by hydrodynamic size, large species first.
Substrate in data set [2]: O=[N+]([O-])c1ccc(O[C@@H]2O[C@H](CO)[C@@H](O)[C@H]2O)cc1
The data set is described as follows: purified protein. The conditions noted are these: Ca2+.

Substrate in data set [3]: O=c1[nH]c(=O)n([C@@H]2O[C@H](CO)[C@@H](O)[C@H]2O)cc1F
Kind of data set: purified protein. The note with it: Ca2+.

Substrate in data set [4]: NC(=O)c1ccc[n+]([C@@H]2O[C@H](CO)[C@@H](O)[C@H]2O)c1
Kind of data set: purified protein. The note with it: Ca2+ active site (modeled only); pH 6.5; 37.0 °C.

Substrate in data set [5]: O=c1[nH]c(=O)n([C@@H]2O[C@H](CO)[C@@H](O)[C@H]2O)cc1Br
The data set is described as follows: purified protein. The note with it: Ca2+.

Substrate in data set [6]: O=c1[nH]c(=O)n([C@@H]2O[C@H](CO)[C@@H](O)[C@H]2O)cc1Cl
The data set is described as follows: purified protein. The note with it: Ca2+.

Substrate in data set [7]: Nc1ccn([C@@H]2O[C@H](CO)[C@@H](O)[C@H]2O)c(=O)n1
Kind of data set: purified protein. The note with it: Ca2+.

Substrate in data set [8]: O=c1ccn([C@@H]2O[C@H](CO)[C@@H](O)[C@H]2O)c(=O)[nH]1
The data set is described as follows: purified protein. The note with it: Ca2+ active site (modeled only).

The molecule “Trichomonas vaginalis riboside hydrolase (TvRH), His6 tag removed (from UniProt A2FTT0 1-347) (enzyme)” came in with a stoichiometry N in data set [1] of 4.

B1: TvRH (riboside hydrolase, TVAG_092730) (Trichomonas vaginalis G3) (protein)
chain: MSIKCALDCDPGHDDLAMIMLAVYSPKLDVQYISTTHGNQTVNKTYQNARRTLNLIKRADKIPVYRGYSKPLTRESVACPEIHGESGLGGVDWSEIDRTMPRNPALDILGYKDESELRPDDFFKHLHRLVSAAEDKFDIISTGSETNIAQYLLAYPEDAKKIRMTTMAGNFMIVGNIMPFAEFNVLIDPEAISNILQSGVDYTFAAPLDITHTVLVTEKVINDIKAATEPYSPKFTEMIIKLLFFFKDTYRDVFGFIDPPLHDPVAAFHLIAPEWFEHVRCHVDIETKGEYTYGCCCTNLILKKKDPTKIVKPDNATVCLKLKEGGHDAFWNQMITVWGEIAKEIGK
With B1, the Michaelis constant (Km) in the data set “purified protein [2]” was 13 µM; in “purified protein [3]”, 17 µM; in “purified protein [4]”, 99.1 µM; in “purified protein [5]” it was 20 µM; in “purified protein [6]”, 11 µM; in “purified protein [7]” it was 33 µM. Besides, the Km in “purified protein [8]” worked out at 39 µM. In addition, the kcat in the data set “purified protein [2]” turned out to be 391 ± 2 s⁻¹; in the data set “purified protein [3]”, 12.6 ± 0.6 s⁻¹; in the data set “purified protein [4]”, 10.9 ± 0.24 s⁻¹; in the data set “purified protein [5]” it was 2.1 ± 0.1 s⁻¹; in the data set “purified protein [6]”, 2.3 ± 0.1 s⁻¹; in the data set “purified protein [7]”, 0.19 ± 0.003 s⁻¹. The turnover number (kcat) in “purified protein [8]” is 9.3 ± 0.27 s⁻¹. Further, the kcat/Km in the data set “purified protein [2]” worked out at 3e+07 M⁻¹ s⁻¹; in the data set “purified protein [3]”, 770000 M⁻¹ s⁻¹; in “purified protein [4]”, 110000 M⁻¹ s⁻¹; in “purified protein [5]” it was 100000 M⁻¹ s⁻¹; in “purified protein [6]” it was 210000 M⁻¹ s⁻¹; in “purified protein [7]” it was 5700 M⁻¹ s⁻¹. The kcat/Km in “purified protein [8]” is 240000 M⁻¹ s⁻¹.

The stoichiometry N is a count of units in the complex or per binding partner. The term Km denotes the concentration of substrate that gives half-maximal velocity. By kcat is commonly meant the number of substrate molecules converted per active site and unit of time at saturation. What is called kcat/Km is the turnover number divided by the Michaelis constant.

Values taken from PMC10474468.
